Assay results reported in patent publication US20200165335A1 (Seagen, published 2020).
Numbering of substitutions follows the chain as printed. Names and notes keep the numbering of the source. Values joined by “and” are separate entries in the source; they are usually repeats but may differ in a detail not shown here. Equal values may be shown once.

Tests used:
human LIV-1 [1] = molecular target: T1, human LIV-1 (UniProt Q13433 29-755); experiment: competition binding on CHO hLIV1 cells
T1 chain: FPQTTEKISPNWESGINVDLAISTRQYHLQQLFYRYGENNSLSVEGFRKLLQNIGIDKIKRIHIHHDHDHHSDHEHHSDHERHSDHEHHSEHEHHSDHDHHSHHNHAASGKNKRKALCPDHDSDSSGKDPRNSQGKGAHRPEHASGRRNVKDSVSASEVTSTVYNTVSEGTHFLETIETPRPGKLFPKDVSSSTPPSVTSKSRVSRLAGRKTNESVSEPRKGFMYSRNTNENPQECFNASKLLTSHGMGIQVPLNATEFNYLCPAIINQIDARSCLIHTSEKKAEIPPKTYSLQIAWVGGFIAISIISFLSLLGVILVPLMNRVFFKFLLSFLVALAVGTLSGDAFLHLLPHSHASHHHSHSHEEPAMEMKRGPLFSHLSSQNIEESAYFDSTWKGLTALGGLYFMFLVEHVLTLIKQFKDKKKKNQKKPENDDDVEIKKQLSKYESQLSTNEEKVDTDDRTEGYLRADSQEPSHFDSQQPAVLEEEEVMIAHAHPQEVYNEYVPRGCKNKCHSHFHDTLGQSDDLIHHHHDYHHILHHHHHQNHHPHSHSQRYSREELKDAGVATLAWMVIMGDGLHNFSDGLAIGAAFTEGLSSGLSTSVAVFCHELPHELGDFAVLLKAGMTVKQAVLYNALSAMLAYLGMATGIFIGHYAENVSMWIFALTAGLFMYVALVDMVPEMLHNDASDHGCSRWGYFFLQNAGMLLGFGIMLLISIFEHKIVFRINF

human LIV-1 [2] = molecular target: T2, human LIV-1 (human, UniProt Q13433 29-755); experiment: average of several saturation binding curves, flow cytometry, MCF7 cells
T2 construct: also called hLIV-1; Q13433
T2 sequence: T1 chain

human LIV-1 [3] = molecular target: T2, human LIV-1; experiment: competition flow cytometry, CHO cells expressing human LIV-1, vs 5 nM AF647-labelled BR2-14a
Experimental: (§1) 1×10⁵ CHO cells expressing recombinant human LIV-1 in PBS/BSA were aliquoted into each well of a 96-well v-bottom plates on ice. […] Cells were pelleted and washed 3 times with PBS/BSA. The cells were pelleted and resuspended in 125 μL of PBS/BSA. Fluorescence was analyzed by flow cytometry, using percent of saturated fluorescent signal to determine percent labeled murine LIV-1 mAb bound and to subsequently extrapolate the EC50 by fitting the data to a sigmoidal dose-response curve with variable slope.

human LIV-1 [4] = molecular target: T2, human LIV-1; experiment: saturation binding, CHO cells expressing human or cyno LIV-1 (FIG. 22)
human LIV-1 [5] = molecular target: T2, human LIV-1; experiment: comparison of the EC50s of Table 3, CHO cells expressing human LIV-1
Experimental: as §1

human LIV-1 [6] = molecular target: T1, human LIV-1; experiment: saturation binding, flow cytometry on MCF7 cells; AF-labeled
cynomolgus monkey LIV-1 [7] = molecular target: T3, cynomolgus monkey LIV-1 (cynomolgus monkey, UniProt Q5R9M9 28-743 (Pongo abelii entry)); experiment: EC50 determination, CHO cells expressing recombinant cyno LIV-1
T3 construct: Recombinant on transfected CHO cells; also called cyno LIV-1; cyLIV-1
T3 chain: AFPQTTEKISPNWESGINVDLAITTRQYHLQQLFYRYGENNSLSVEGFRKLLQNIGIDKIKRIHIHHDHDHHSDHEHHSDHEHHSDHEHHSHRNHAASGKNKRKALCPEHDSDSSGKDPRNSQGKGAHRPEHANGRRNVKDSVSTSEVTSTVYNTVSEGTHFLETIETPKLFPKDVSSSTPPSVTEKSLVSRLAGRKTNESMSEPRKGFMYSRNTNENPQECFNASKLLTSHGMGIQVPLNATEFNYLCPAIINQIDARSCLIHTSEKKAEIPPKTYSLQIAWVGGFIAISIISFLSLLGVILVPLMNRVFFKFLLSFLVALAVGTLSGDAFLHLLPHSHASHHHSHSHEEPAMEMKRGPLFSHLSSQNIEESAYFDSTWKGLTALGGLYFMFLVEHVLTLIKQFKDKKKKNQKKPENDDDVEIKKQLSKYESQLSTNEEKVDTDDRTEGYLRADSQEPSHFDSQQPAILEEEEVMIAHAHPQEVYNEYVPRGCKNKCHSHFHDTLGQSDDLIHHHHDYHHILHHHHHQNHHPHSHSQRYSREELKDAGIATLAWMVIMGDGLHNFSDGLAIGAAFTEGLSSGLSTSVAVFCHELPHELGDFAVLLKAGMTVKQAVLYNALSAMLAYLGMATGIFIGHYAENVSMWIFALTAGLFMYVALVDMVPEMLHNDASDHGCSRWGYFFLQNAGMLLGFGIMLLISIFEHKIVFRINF
Experimental: as §1, with “recombinant cyno” for “recombinant human”, “in PBS” for “in PBS/BSA”, “aliquoted in” for “aliquoted into”, “with PBS.” for “with PBS/BSA.”

cynomolgus monkey LIV-1 [8] = molecular target: T4, cynomolgus monkey LIV-1; experiment: saturation binding on CHO cells; apparent Kd
T4 chain: T3 chain

human LIV-1 [9] = molecular target: T1, human LIV-1; experiment: saturation binding on CHO cells; apparent Kd
cynomolgus monkey LIV-1 [10] = molecular target: T3, cynomolgus monkey LIV-1; experiment: saturation binding, CHO cells expressing cyno LIV-1 (FIG. 22)
human LIV-1 [11] = molecular target: T2, human LIV-1; experiment: saturation binding, CHO cells expressing human LIV-1 (FIG. 22)
human LIV-1 [12] = molecular target: T2, human LIV-1; experiment: competition flow cytometry, CHO cells expressing recombinant LIV-1, vs 5 nM AF647-labelled BR2-22a
Experimental: 1×10⁵ CHO cells expressing recombinant LIV-1 in PBS were aliquoted into each well of a 96-well v-bottom plates on ice. […] Cells were pelleted and washed 3 times with PBS. The cells were then pelleted and resuspended in 125 μL of PBS/BSA. Fluorescence was analyzed by flow cytometery, using percent of saturated fluorescent signal to determine percent labeled humanized BR2-22a antibody bound and to subsequently extrapolate the EC50 by fitting the data to a sigmoidal dose-response curve with variable slope.
All permutations of these five heavy chains and six light chains were then tested in a competition assay compared with BR2-22a (see FIG. 17).

human LIV-1 [13] = molecular target: T2, human LIV-1; experiment: saturation binding, flow cytometry, MCF7 cells
Experimental: (§2) 1×10⁵ antigen expressing cells (either MCF7 cells (ATCC) expressing human LIV-1, a transfected CHO cell line expressing human LIV-1 or a transfected CHO cell line expressing cyno LIV-1) were aliquoted per well of a 96-well v-bottom plates. […] Cells were pelleted and washed 3× with PBS/BSA. The cells were then pelleted and resuspended in 125 μL of PBS/BSA. Fluorescence was analyzed by flow cytometry, using percent of saturated fluorescent signal to determine percent bound and to subsequently calculate apparent Kd.

human LIV-1 [14] = molecular target: T2, human LIV-1; experiment: saturation binding, flow cytometry, comparison of the cell lines of Table 1
Experimental: as §2

human LIV-1 [15] = molecular target: T2, human LIV-1; experiment: saturation binding of AF647-labelled antibody, flow cytometry, MCF-7 (ATCC) cells, endogenous hLIV-1
Experimental: as §2

cynomolgus monkey LIV-1 [16] = molecular target: T3, cynomolgus monkey LIV-1; experiment: saturation binding of AF647-labelled antibody, flow cytometry, CHO (cyLIV-1) cells
Experimental: as §2

human LIV-1 [17] = molecular target: T2, human LIV-1; experiment: saturation binding of AF647-labelled antibody, flow cytometry, CHO (hLIV-1) cells
Experimental: as §2

human LIV-1 [18] = molecular target: T2, human LIV-1; experiment: saturation binding of AF647-labelled antibody, flow cytometry, 293F (hLIV-1) cells
human LIV-1 [19] = molecular target: T2, human LIV-1; experiment: saturation binding of AF647-labelled antibody, flow cytometry, CHO hLIV-1 cells
Experimental: as §2, with “cells” for “cells (ATCC)”, “LIV-1, 293F cells,” for “LIV-1,”, “cytometery,” for “cytometry,”
(§3) The KD for the murine Liv1 of BR2-22a (Table 5) was determined for human LIV-1 expressed as an endogenous protein in a human breast cancer cell line, in 293F cells or as a recombinant protein in a CHO cell line. The KD for BR2-22a was also determined for cyno LIV-1 expressed as a recombinant protein in a CHO cell line.

human LIV-1 [20] = molecular target: T2, human LIV-1; experiment: saturation binding of AF647-labelled antibody, flow cytometry, MCF7 (ATCC) cells, endogenous hLIV-1
Experimental: as §2, with “cells” for “cells (ATCC)”, “LIV-1, 293F cells,” for “LIV-1,”, “cytometery,” for “cytometry,”
as §3

human LIV-1 [21] = molecular target: T2, human LIV-1; experiment: saturation binding of AF647-labelled antibody, flow cytometry, 293F (hLIV-1) cells; remark: listed apart in the source
Experimental: as §2, with “cells” for “cells (ATCC)”, “LIV-1, 293F cells,” for “LIV-1,”, “cytometery,” for “cytometry,”
as §3

human LIV-1 [22] = molecular target: T1, human LIV-1; experiment: competition binding
cynomolgus monkey LIV-1 [23] = molecular target: T3, cynomolgus monkey LIV-1; experiment: saturation binding of AF647-labelled antibody, flow cytometry, CHO cyLIV-1 cells
Experimental: as §2, with “cells” for “cells (ATCC)”, “LIV-1, 293F cells,” for “LIV-1,”, “cytometery,” for “cytometry,”
as §3

B1: humanized BR2-14a antibody HBLB (hLIV14) (antibody, human IgG1, V domains shown)
VH: QVQLVQSGAEVKKPGASVKVSCKASGYTIEDYYMHWVRQAPGQGLEWMGWIDPENGDTEYAPTFQGRVTMTRDTSINTAYMELSRLRSDDTAVYYCARHDAHYGTWFAYWGQGTLVTVSS
VL: DVVMTQSPLSLPVTLGQPASISCRSSQSIIRNDGNTYLEWYQQRPGQSPRRLIYRVSNRFSGVPDRFSGSGSGTDFTLKISRVEAEDVGVYYCFQGSHVPYTFGGGTKVEIKR
notes: also called hLIV-14 HBLB WT; LIV-1 mAb HBLB
Human LIV-1 [1]
  EC50: 0.642 µg/mL
Human LIV-1 [2]
  Kd: 1.5 nM
Human LIV-1 [3]
  EC50: 0.3 µg/mL
Human LIV-1 [4]
  fold affinity for human LIV-1 relative to cynomolgus LIV-1: 2 fold
Human LIV-1 [5]
  fold better binding than the next humanized antibody HBLF: ≥ 2 fold
Human LIV-1 [6]
  Kd: 0.4 µg/mL and 2.9 nM
Cynomolgus monkey LIV-1 [7]
  binding result: binds
Cynomolgus monkey LIV-1 [8]
  Kd: 2.1 nM
Human LIV-1 [9]
  Kd: 4.3 nM

B2: humanized BR2-22a antibody HGLG (hLIV22) (antibody, V domains shown)
VH: B1 VH with Y27L, A61G, T63K, R98V, D100N
VL: B1 VL with I29L, I30L, R31H, N32S, D33S, R51P, R55K, V56I, N58T
notes: Only variable regions tied to the tested antibody; also called humanized LIV22 antibody; hLIV-22 HG + hLIV-22 LG
Cynomolgus monkey LIV-1 [10]
  binding result: binds
Human LIV-1 [11]
  fold higher affinity (inverse of dissociation constant) than hLIV14: ~4 fold
Cynomolgus monkey LIV-1 [8]
  Kd: 1.3 nM
Human LIV-1 [9]
  Kd: 1.2 nM
Human LIV-1 [12]
  EC50: 0.5 µg/mL

B3: humanized BR2-14a antibody HBLB S239C (antibody, human IgG1, kappa, V domains shown)
VH: B1 VH
VL: B1 VL
notes: also called LIV-14d; hLIV-14 HBLB S239C
Human LIV-1 [1]
  EC50: 0.419 µg/mL
Cynomolgus monkey LIV-1 [7]
  binding result: binds

B4: murine LIV-1 monoclonal antibody BR2-14a (antibody, V domains shown)
VH: QVQLQQSGAELVRSGASVKLSCTASGFNIEDYYMHWVKQRPKQGLEWIGWIDPENGDTEYAPTFQGKATMTADTSSNTAYLQLSSLTSEDTAVYYCNVHDAHYGTWFAYWGQGTLVTVSA
VL: DVLMTQTPLSLPVSLGDQASISCRSSQSIIRNDGNTYLEWYLQKPGQSPKLLIYRVSNRFSGVPDRFSGSGSGTDFTLKISRVEAEDLGVYYCFQGSHVPYTFGGGTKLEIKR
notes: Mouse monoclonal from hybridoma ATCC PTA-5705A; also called parental murine mAb; murine LIV-1 mAb
Human LIV-1 [1]
  EC50: 3.42 µg/mL
Human LIV-1 [13]
  Kd: 2.9 nM
Human LIV-1 [14]
  fold lower dissociation constant for non-recombinant LIV-1 of a human cell line than for recombinant LIV-1: ~5 fold
Human LIV-1 [6]
  Kd: 0.8 µg/mL and 5.8 nM
Human LIV-1 [15]
  Kd: 2.4 nM
Cynomolgus monkey LIV-1 [16]
  Kd: 14 nM
Human LIV-1 [17]
  Kd: 12.5 nM
Human LIV-1 [18]
  Kd: 2.7 nM

B5: mouse monoclonal antibody BR2-22a (antibody, mouse IgG1, V domains shown)
VH: B4 VH with Q1E, F27L, K42E, A61G, T63K, E89G, N97T, D100N
VL: DVLMTQTPLSLPVSLGDQASISCRSSQSLLHSSGNTYLEWYLQRPGQSPKPLIYKISTRFSGVPDRFSGSGSGTDFTLKISRVEAEDLGLYYCFQGSHVPYTFGGGTKLEIKR
notes: also called mAb2; parental BR2-22a
Human LIV-1 [19]
  Kd: 1.5 nM
Human LIV-1 [20]
  Kd: 1.1 nM
Human LIV-1 [21]
  Kd: 0.5 nM
Human LIV-1 [22]
  EC50: 0.3 µg/mL
Human LIV-1 [9]
  Kd: 1.2 nM
Cynomolgus monkey LIV-1 [23]
  Kd: 4.2 nM
